# Experimental data as given in publication PMC3019263 (Archives of biochemistry and biophysics, 2010).
# B1: PheH117, the regulatory domain of rat phenylalanine hydroxylase, lacking residues after Thr117 (domain or fragment, UniProt P04176 1-117, looked up)
# chain: MAAVVLENGVLSRKLSDFGQETSYIEDNSNQNGAISLIFSLKEEVGALAKVLRLFEENDINLTHIESRPSRLNKDEYEFFTYLDKRTKPVLGSIIKSLRNDIGATVHELSRDKEKNT
# Target: the molecule itself
# Assay: SEC
protein,measurement,value
B1,stoichiometry N,2
